Holding throughout (assay): Phadia diagnostics and/or Western blot
(In general: A western blot detects proteins with antibodies after separation by electrophoresis.)

In one assay the target is T1, Peanut allergen Ara h 6 (peanut, UniProt Q647G9 22-145).
T1 sequence (looked up): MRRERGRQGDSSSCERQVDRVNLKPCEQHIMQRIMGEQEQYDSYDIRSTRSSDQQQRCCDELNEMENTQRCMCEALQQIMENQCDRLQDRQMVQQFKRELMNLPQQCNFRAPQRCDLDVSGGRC

Assay [1] has as its target T2, Aspergillus fumigatus allergen Asp f 1 (Aspergillus fumigatus, UniProt P67875 28-176).
T2 sequence: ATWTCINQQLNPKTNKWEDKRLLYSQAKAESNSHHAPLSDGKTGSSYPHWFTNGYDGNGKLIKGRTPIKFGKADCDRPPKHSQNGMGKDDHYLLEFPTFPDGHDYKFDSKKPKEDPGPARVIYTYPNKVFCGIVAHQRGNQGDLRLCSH

Another assay addresses T3, Cat allergen Fel d 1 (cat, UniProt P30438 23-92; P30440 18-109).
T3 sequence (looked up) 1: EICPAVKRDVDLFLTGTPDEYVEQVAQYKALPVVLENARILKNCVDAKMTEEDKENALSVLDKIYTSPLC
T3 sequence (looked up) 2: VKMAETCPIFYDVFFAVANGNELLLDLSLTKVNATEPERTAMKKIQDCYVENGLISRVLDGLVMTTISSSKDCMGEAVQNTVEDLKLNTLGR

Assay [2] concerns the target T4, Dust mite allergen Der p 1 (dust mite (Dermatophagoides …, UniProt P08176 99-320)).
T4 sequence (looked up): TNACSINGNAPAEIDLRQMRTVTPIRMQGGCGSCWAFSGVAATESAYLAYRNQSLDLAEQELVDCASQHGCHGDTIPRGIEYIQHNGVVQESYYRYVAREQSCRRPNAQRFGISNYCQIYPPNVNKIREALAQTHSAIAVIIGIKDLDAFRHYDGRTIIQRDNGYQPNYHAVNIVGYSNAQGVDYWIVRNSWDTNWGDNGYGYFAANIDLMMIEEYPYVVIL

Numbering of substitutions follows the chain as printed.

B1: Human IgE mAb 1A8 (antibody, V domains shown)
VH: QLQLQESGPGLVKPSETLSLTCSVSDDSISTPSYFWTWIRQPPGKGLEWIASIYYTGTTYYNPSLKSRVTLSVDTPKRQFFLRLSSVTAADTAVYYCARYLDYVWLRAFDVWGQGAMVTVSS
VL: EIVLTQSPATLSLSPGERATLSCRASPSVGRFLAWYQQKPGQAPRLLIYDASQRATDIPARFSASGSGTDFTLTIDSLEPEDFAIYYCQHRSNWPVTFGGGTRVEIK
notes: Natural human IgE from a hybridoma
For B1, the binding result with Peanut allergen Ara h 6 is reported as “binds”.

B2: Human IgE mAb 8F3 (antibody, V domains shown)
VH: QLQLQESGPGLVKPSETLSLTCTVSDASIDTPSYFWSWIRQPPGKGLEWIGSIYYTGNKYSNPSLKSRVTMSVDTPKRQFSLRLSSVTAADTAVYYCARYVDYVWLRAFDIWGQGTRVTVSS
VL: B1 VL with V29A, K39R, Q53K, I58T, A64G, T72N, D76A, I85V, V96L, R103K
notes: as for B1
As to B2, in the assay with Peanut allergen Ara h 6, the binding result is on record as “binds”.

B3: Human IgE mAb 14H4 (antibody, V domains shown)
VH: EVQLVQSGAEVKRAGESLKISCKGSGYPFATYWVGWVRQMPGKGLEWMTIIYPEDSDTRYSPSFQDHVTISADKSLSTAYLQWSSLKASDTAMYYCARVSRYYYDSRSYYPDAFDIWGQGTMVTVSS
VL: SYELTQPPSVSVSPGQTASITCSGDKLGDKYVCWYQQKPGRSPVLVVHQDTKRPSGIPERFSGSNSGDTATLTISGTQAMDEADYYCQAWDSTIGVFGPGTRVTVL
notes: as for B1
In the case of B3, the binding result in assay [1] was “binds”.

B4: Human IgE mAb 1B7 (antibody, V domains shown)
VH: EFQLQESGPGLVKPSETLSLNCSVSGGSISNNYWNWIRQPPGKGLEWIGYISYSGRTHYNPSLKSRVSISLHTSKNHFSLKLTSVAAADTAMYYCARESTYSYKLGDAFDIWGQGTMVTVSA
VL: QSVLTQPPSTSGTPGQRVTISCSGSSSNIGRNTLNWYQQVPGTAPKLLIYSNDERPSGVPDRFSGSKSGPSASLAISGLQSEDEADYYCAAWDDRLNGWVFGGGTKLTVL
In the case of B4, the binding result with Cat allergen Fel d 1 is recorded as “binds”.

B5: Human IgE mAb 1C14 (antibody, V domains shown)
VH: QVQLQESGPGLVKPSQTLSLTCTVSGGSISSGGFFWGWIRQHPGRDLEWIGYIFYTGSTNYNPSLKNRVTLSVDTSKNHFSLNLTSVTVADTAVYYCARQGGVRGNYYFMDVWGKGTTVTVSS
VL: DIQMTQSPSSLSASVGDRVTITCRASQSISNYLNWYQQKPGKAPKLLIYAASRLQSGVPSRFSGSGSGTELTLTISSLQPEDFATYFCQQSYNTPYSFGQGTKVEIK
notes: as for B1
B5: in assay [2], the binding result is “binds”.

Values taken from patent US20190353661A1 (VANDERBILT UNIVERSITY, published 2019).
